Assay results published in the nanobody polyreactivity screen of Harvey et al. (2022).

Assay: yeast display, Sf9 membrane polyspecificity reagent, FACS + sequencing; frameworks hold sequencing errors
How it was run: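 After 36–48 hours of galactose induction, yeast (Saccharomyces cerevisiae BJ5465) displaying a synthetic nanobody library were stained at 4 °C for 1 hour with 10% biotinylated, detergent-solubilized Sf9 membrane reagent. Streptavidin microbeads enriched the stained cells before FACS sorting into low and high (top ~1%) gates on anti-HA and streptavidin fluorescence. Each clone's polyreactivity label reflects its gate of origin.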

Sequence: QVQLVESGGGLVQAGGSLRLSCAASGRIFFTNAMGWYRQAPGKERELVAAITSTGSRTYYADSVKGRFTISRDNAKNTVYLQMNSLKPEDTAVYYCNRVSHLDYYWGQGTQVTVSS
- polyreactivity (PSR sort gate): high polyreactivity

Sequence: QVQLVESGGGLVQAGGSLRLSCAASGRIFFTNAMGWYRQAPGKETELVASIDDTGSTNYADSVKGRFTISRDNAKNTVYLQMNSLKPEDTAVYYCNGVYYSYRYGHDYWGQGTQVTVSS
- polyreactivity (PSR sort gate): low polyreactivity

Sequence: QVQLVESGGGLVQAGGSLRLSCAASGRIFFTNDMGWYRQAPGKERELVATITGNGASTFYADSVKGRFTISRDNAKNTVYLQMNSLKPEDSAVYYCNADRSSYPRYDYWGQGTLVTVSS
- polyreactivity (PSR sort gate): low polyreactivity

Sequence: QVQLVESGGGLVQAGGSLRLSCAASGRIFFTYVMGWYRQAPGKEREFVAAITFSDGTTYYADSVKGRFTISRDNAKNTVYLQMNSLKPEDTAVYYCNTDSFYGFVYPWTISSEVDYWGQGTQVTVSS
- polyreactivity (PSR sort gate): low polyreactivity

Sequence: QVQLVESGGGLVQAGGSLRLSCAASGRIFFVNAMGWYRQAPGKERELVAAISRGGSTNYADSVKGRFTISRDNAKNTVYLQMNSLKPEDTAVFYCNADGSSYWYPVPLDGGDYWGQGTQVTVSS
- polyreactivity (PSR sort gate): low polyreactivity

Sequence: QVQLVESGGGLVQAGGSLRLSCAASGRIFFYNDMGWYRQAPGKERELVASISSGTSTYYADSVKGRFTISRDNAKNTVYLQMNSLKPEDTAVYYCATGRPWHYSSATYDYWGQGTQVSVSS
- polyreactivity (PSR sort gate): low polyreactivity

Sequence: QVQLVESGGGLVQAGGSLRLSCAASGRIFGANAMGWYRQAPGKERELVATITYGGTSTYYADSVKGRFTISRDNGKNTVYLQMNSLKPEDTAVSYCAADGYSVFAAILGEYFDSDYWGQGTQVTVSS
- polyreactivity (PSR sort gate): low polyreactivity

Sequence: QVQLVESGGGLVQAGGSLRLSCAASGRIFGANAMGWYRQAPGKERELVAVITGGGGTYYADSVKGRFTISRDNAKNTVYLQMNRLKPEETAVYYCDWPRYYYTYPSHPMDYWGQGTQVTVSS
- polyreactivity (PSR sort gate): low polyreactivity

Sequence: QVQLVESGGGLVQAGGSLRLSCAASGRIFGANARGWYRQAPGKERELVATITYGGTSTYYADSVKGRFTISRDNAKNTVYLQMNSLKPEDTAVYYCAADGYSVFAAILGEYFDYDYWGQGTQVTVSS
- polyreactivity (PSR sort gate): low polyreactivity

Sequence: QVQLVESGGGLVQAGGSLRLSCAASGRIFGAYAMGSYRQAPGKERELVAAIDIRGGKTYYADSVKGRFTISRDYSKNSVYLQMNSMKPEDTAVYYCAADTWYDAYNYWGQGTQVTVSS
- polyreactivity (PSR sort gate): low polyreactivity

Sequence: QVQLVESGGGLVQAGGSLRLSCAASGRIFGAYAMGWYRQAPGKERELVAAITSGGSTYADSVKGRFTISRDNAKNTVYLQMNSLKPEDTAVYYCAADLITRSDSWWTGWIWEYDYWGQGTQVTVSS
- polyreactivity (PSR sort gate): low polyreactivity

Sequence: QVQLVESGGGLVQAGGSLRLSCAASGRIFGAYAMGWYRQAPGKERELVADIRSTGSTNYADSVKGRFTISRDNAKNTVYLQMNSLKPEDTAVYYCAARWRSRRFGSGFEYWGQGTQVTVSS
- polyreactivity (PSR sort gate): high polyreactivity

Sequence: QVQLVESGGGLVQAGGSLRLSCAASGRIFGCYSMGWYRPAPGKEREEVAAITWSGTSTYYADSVKGRFTISRENAKNTVYLQMNSLQPEDTAVYYCAADSLSGSAPTYYSTLEYWGQGTQVTVSS
- polyreactivity (PSR sort gate): low polyreactivity

Sequence: QVQLVESGGGLVQAGGSLRLSCAASGRIFGDNAMGWYRQAPGKEREFVATINGSGGSTYYADSVKGRFTISRDNAKNTVYLQMNSLKPEDTAVYYCFVQQNYGYDYWGQGTQVTVSS
- polyreactivity (PSR sort gate): low polyreactivity

Sequence: QVQLVESGGGLVQAGGSLRLSCAASGRIFGDNTMGWYRQAPGKERELVAAISFTGGSTYYADSVKGRFSISRDNAKNTVYLQMNSLKPEDTAVYYCNADWVSTWGYDYWGQGTQVTVSS
- polyreactivity (PSR sort gate): low polyreactivity

Sequence: QVQLVESGGGLVQAGGSLRLSCAASGRIFGDYAMGWYRQAPGKERELVAAISYSGGSTYYADSVKGRFTISRDNAKNTVYLQMNSLKPEDTAVYYCNKRWYTYGRYGVQGYDYWGQGTQVTVSS
- polyreactivity (PSR sort gate): high polyreactivity

Sequence: QVQLVESGGGLVQAGGSLRLSCAASGRIFGEYAMGWYRQAPGKERELVAAITSSTGSTYYADSVKGRFTISRDNAKNTVYLQMNSLKPEDTAVYYCAAADLKYASYWYDYWGQGTQVTVSS
- polyreactivity (PSR sort gate): low polyreactivity

Sequence: QVQLVESGGGLVQAGGSLRLSCAASGRIFGFYAMGLYRQAPGKERELVARITLSGGRTYYADSVKGRFTISRDNAKNTVYLQMNSLKPEDTAVYYCAADSIGRLWGYGYWGQGTQVTVSS
- polyreactivity (PSR sort gate): high polyreactivity

Sequence: QVQLVESGGGLVQAGGSLRLSCAASGRIFGFYAMGWYRQAPGKEREFVAAITWSGTNTYYADSVKGRFTISRDNAKNTVYLQMNSLKPEDTAVYYCNARQYYKYGYWGQGTQVTVSS
- polyreactivity (PSR sort gate): high polyreactivity

Sequence: QVQLVESGGGLVQAGGSLRLSCAASGRIFGFYAMGWYRQAPGKERELVADINWSATSTYYADSVKGRFTISRDNAKNTVYLQMNSLKPEDTAVYYCAADVSYRYYWGQVTQVTVSS
- polyreactivity (PSR sort gate): low polyreactivity

Sequence: QVQLVESGGGLVQAGGSLRLSCAASGRIFGFYAMGWYRQAPGKERELVADITSGGSTNYADSVKGRFTISRDNAKNTVYLQMNSLKPEDTAVYYCNALSYVWYRYPGNWDEDDYWGQGTQVTVSS
- polyreactivity (PSR sort gate): low polyreactivity

Sequence: QVQLVESGGGLVQAGGSLRLSCAASGRIFGFYAMGWYRQAPGKERELVARITSGGRTTYADSVKGRFTISRDNAKNTVYLQMNSLKPEDTAVYYCAADARYHGFPKVYYYRGGYDYWGQGTQVTVSS
- polyreactivity (PSR sort gate): high polyreactivity

Sequence: QVQLVESGGGLVQAGGSLRLSCAASGRIFGGNAMGWYRQAPGKERELVAAISKRGGSTYYADSVKWRFTISRDNAKNTVYLQMNILKPEDTAVYYCAATAYADQGLDYGYWGQGTQVTVSS
- polyreactivity (PSR sort gate): high polyreactivity

Sequence: QVQLVESGGGLVQAGGSLRLSCAASGRIFGGNAMGWYRQAPGKERELVAAITSGGTTNYADSVKGRFTISRDNAKNTVYLQMNSLKPEDTAVYYCAADFKPLYYDEYDYWGQGTQVTVSS
- polyreactivity (PSR sort gate): low polyreactivity

Sequence: QVQLVESGGGLVQAGGSLRLSCAASGRIFGGNAMGWYRQAPGKERELVAAITTRGGSTYADSVKGRFTISRDKAKNTVYLQMNSLKPEDTAVYYCAVERSYHGGPRYLVRTYGYWGQGTQVTVSS
- polyreactivity (PSR sort gate): low polyreactivity

Sequence: QVQLVESGGGLVQAGGSLRLSCAASGRIFGGNTMGWYRQAPGKEREFVAAITQSGTRTYYADSVKGRFTISRDNAKNTVYLQMNSLKPEDTAVYYCAATWRQHPGSMGYWGQGTQVTVSS
- polyreactivity (PSR sort gate): high polyreactivity

Sequence: QVQLVESGGGLVQAGGSLRLSCAASGRIFGGYAMGWYRPAPGKERELVAAISSRGGSTYYADSVKGRFTISRDNAKNTVYLQMNSLKPEDTAVYYCAADGRVKGWGQGTQVTVSS
- polyreactivity (PSR sort gate): high polyreactivity

Sequence: QVQLVESGGGLVQAGGSLRLSCAASGRIFGGYAMGWYRQAPGKERELVAAISSGGNTKYADSVKGRFTISRDNAKNTVYLQMNSLKPEDTAVYYCAAKFAQPYYRYDYWGQGTQVTVSS
- polyreactivity (PSR sort gate): high polyreactivity

Sequence: QVQLVESGGGLVQAGGSLRLSCAASGRIFGGYAMGWYRQAPGKERELVASITARGTSTYYADTVKGRFTISRDNAKNTVYLQMNRLKPEDTAVYYCNALYRIYRNQWFISNYGYYYWGQGTQVTVSS
- polyreactivity (PSR sort gate): low polyreactivity

Sequence: QVQLVESGGGLVQAGGSLRLSCAASGRIFGGYAMGWYRQAPGKERELVAVINGGTSTKYADSVKGRFTISRDNAKNTVYLQMNSLKPEDNAVYYCAKTRHDSLQNRNRYDYWGQGTQVTVSS
- polyreactivity (PSR sort gate): low polyreactivity

Sequence: QVQLVESGGGLVQAGGSLRLSCAASGRIFGGYAMGWYRQAPGKERELVAVITDGGSTNYADSVKGRFTISRDNAKNTVYLQMNSLKPEDTAVYYCAADSYGDEPPYDYWGQGTQVTVSS
- polyreactivity (PSR sort gate): low polyreactivity

Sequence: QVQLVESGGGLVQAGGSLRLSCAASGRIFGGYTMGWYRQAPGKERELVAAITSGGSTNYADSVKGRFTISRDNAKNTVYLQMNSLKPEDTAVYYCAATYDGTYDYWGQGTQVTVSS
- polyreactivity (PSR sort gate): high polyreactivity

Sequence: QVQLVESGGGLVQAGGSLRLSCAASGRIFGINVMGWYRPAPGKERELVARITGRGGRTYYADSVKGRFTMSRDNAKNTVYLQMNSLKPEDTAVYYCAADARYEAYDYWGQGTQVTVSS
- polyreactivity (PSR sort gate): high polyreactivity

Sequence: QVQLVESGGGLVQAGGSLRLSCAASGRIFGIYAMGWYRQAPGKERELVAAISKSGARTYYADSVKGRFTISRDNAKNTVFLQMNSLKPEDTAVYYCNAYRRKYYFTYGSWGQGTQVTVSS
- polyreactivity (PSR sort gate): high polyreactivity

Sequence: QVQLVESGGGLVQAGGSLRLSCAASGRIFGIYAMGWYRQAPGKERELVARITGGGSTNYADSVKGRFTISRDNAKNTVYLQMNSLKPEDTAVYYCAATVRRIVGNITRYDYWGQGTQVTVSS
- polyreactivity (PSR sort gate): low polyreactivity

Sequence: QVQLVESGGGLVQAGGSLRLSCAASGRIFGKYAMGWYRQAPGKERELVAAIRITGGSTYYADSVKGRFTISRDNAKNTVYLQMNSLKPEDTAVYYCAAVYKYADVIYDYWGQGTQVTVSS
- polyreactivity (PSR sort gate): high polyreactivity

Sequence: QVQLVESGGGLVQAGGSLRLSCAASGRIFGKYAMGWYRQAPGKERELVATISLSGVRTYYADSVKGRFTISRDNAKNTVYLQMNSLKPEDTAVYYCASCYSSNGDYWGQGTQVTVSS
- polyreactivity (PSR sort gate): low polyreactivity

Sequence: QVQLVESGGGLVQAGGSLRLSCAASGRIFGKYMGWYRQAPGKERELVAAISRNGGRTYYADSVKGRFTISRDNAKNTVYLQMNCLNPEDTAVYYCAAASSRYDYWGQGTQVTVSS
- polyreactivity (PSR sort gate): high polyreactivity

Sequence: QVQLVESGGGLVQAGGSLRLSCAASGRIFGLYAMGWYRQAPGKERELVAAISSRGGNTYYADSVKGRFTISRDDAKNTVYLQMNSLKPEDTAVYYCARDSYSLSRTYDSWGQGTQVTVSS
- polyreactivity (PSR sort gate): high polyreactivity

Sequence: QVQLVESGGGLVQAGGSLRLSCAASGRIFGNNAMGLYRQAPGKERELVAAIRRGGSTYYADSVKGRFTISRDNAKNTVYLQMNSLKPEDTAVYYCAADSSRKHFYWGQGTQVTVSS
- polyreactivity (PSR sort gate): high polyreactivity

Sequence: QVQLVESGGGLVQAGGSLRLSCAASGRIFGNNAMGWYRQAPGKERELVATITRRGGSTYYADSVKGRFTISRDNAKNTVYLQMNSLKPEDTAVYYCAADRWPYWVAFYSWGQGTQVTVSS
- polyreactivity (PSR sort gate): high polyreactivity

Sequence: QVQLVESGGGLVQAGGSLRLSCAASGRIFGNYAMGWYIQAPGKERELVAAISSGGNTNYADSVKGRFTISRDNAKNTVYLQMNSLKPEDTAVYYCAAYHFSFGWIRVDYWGQGTQVTVSS
- polyreactivity (PSR sort gate): high polyreactivity

Sequence: QVQLVESGGGLVQAGGSLRLSCAASGRIFGNYAMGWYRQAPGKERELVAAISGGGSTYYADSVKGRFTISRDNAKNTVYLQLNSLKPEDTAVYYCAARFLWSVFGGKGGYWGQGTQVTVSS
- polyreactivity (PSR sort gate): low polyreactivity
